# Experimental data from the supplement of paper PMC6755084.
# B1: F1*; the commonest letter at each place (parent)
# chain: GAGACCGCAACTGAAAAGTTGTTATCACTTGTCGTAAGACACTTTGGATGGGTTGAAGTTCTGCACGTAGAAGCAAAAGGC
# Variants of: B1
# Assay: fraction ligated after 30 min (ligated reads / total reads); higher = more ligase activity
# Conditions: with F1*sub RNA substrate (template-directed ligation), 42 °C
# In short: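 Ribozyme variants were transcribed with T7 from PCR-amplified oligo-pool templates and gel-purified. Ligated and unligated bands, separated on gel, were reverse transcribed with barcoded primers and sequenced on a MiSeq, with core bases filtered at quality ≥20. Fraction ligated per variant was computed as ligated reads divided by total reads.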
row,Variant,fraction ligated
1,GAGACCGCAACTGAAAAGTTGTTATCACTTGTCCTAAAACACTTTGGATGGGTTGAAGTTCTGCACGTAGAAGCAAAAGGC [G34C G38A],0.813
2,GAGACCGCAACTGAAAAGTTGTTATCACTTGTCCTAATACACTTTGGATGGGTTGAAGTTCTGCACGTAGAAGCAAAAGGC [G34C G38T],0.811
3,GAGACCGCAACTGAAAAGTTGTTATCACTTGTCCTAACACACTTTGGATGGGTTGAAGTTCTGCACGTAGAAGCAAAAGGC [G34C G38C],0.818
4,GAGACCGCAACTGAAAAGTTGTTATCACTTGTCCTAAGACAATTTGGATGGGTTGAAGTTCTGCACGTAGAAGCAAAAGGC [G34C C42A],0.852
5,GAGACCGCAACTGAAAAGTTGTTATCACTTGTCCTAAGACAGTTTGGATGGGTTGAAGTTCTGCACGTAGAAGCAAAAGGC [G34C C42G],0.84
6,GAGACCGCAACTGAAAAGTTGTTATCACTTGTCCTAAGACATTTTGGATGGGTTGAAGTTCTGCACGTAGAAGCAAAAGGC [G34C C42T],0.849
7,GAGACCGCAACTGAAAAGTTGTTATCACTTGTCCTAAGACACTGTGGATGGGTTGAAGTTCTGCACGTAGAAGCAAAAGGC [G34C T44G],0.84
8,GAGACCGCAACTGAAAAGTTGTTATCACTTGTCCTAAGACACTCTGGATGGGTTGAAGTTCTGCACGTAGAAGCAAAAGGC [G34C T44C],0.803
9,GAGACCGCAACTGAAAAGTTGTTATCACTTGTCCTAAGACACTATGGATGGGTTGAAGTTCTGCACGTAGAAGCAAAAGGC [G34C T44A],0.816
10,GAGACCGCAACTGAAAAGTTGTTATCACTTGTCCTAAGACACTTTGGAGGGGTTGAAGTTCTGCACGTAGAAGCAAAAGGC [G34C T49G],0.75
11,GAGACCGCAACTGAAAAGTTGTTATCACTTGTCCTAAGACACTTTGGAAGGGTTGAAGTTCTGCACGTAGAAGCAAAAGGC [G34C T49A],0.776
12,GAGACCGCAACTGAAAAGTTGTTATCACTTGTCCTAAGACACTTTGGACGGGTTGAAGTTCTGCACGTAGAAGCAAAAGGC [G34C T49C],0.0345
13,GAGACCGCAACTGAAAAGTTGTTATCACTTGTCCTAAGACACTTTGAATGGGTTGAAGTTCTGCACGTAGAAGCAAAAGGC [G34C G47A],0.774
14,GAGACCGCAACTGAAAAGTTGTTATCACTTGTCCTAAGACACTTTGTATGGGTTGAAGTTCTGCACGTAGAAGCAAAAGGC [G34C G47T],0.352
15,GAGACCGCAACTGAAAAGTTGTTATCACTTGTCCTAAGACACTTTGCATGGGTTGAAGTTCTGCACGTAGAAGCAAAAGGC [G34C G47C],0.365
16,GAGACCGCAACTGAAAAGTTGTTATCACTTGTCCTAAGTCACTTTGGATGGGTTGAAGTTCTGCACGTAGAAGCAAAAGGC [G34C A39T],0.781
17,GAGACCGCAACTGAAAAGTTGTTATCACTTGTCCTAAGCCACTTTGGATGGGTTGAAGTTCTGCACGTAGAAGCAAAAGGC [G34C A39C],0.806

row,Variant,fraction ligated
1,GAGACCGCAACTGAAAAGTTGTTATCACTTGTCCTAAGGCACTTTGGATGGGTTGAAGTTCTGCACGTAGAAGCAAAAGGC [G34C A39G],0.807
2,GAGACCGCAACTGAAAAGTTGTTATCACTTGTCCTAAGACACTTTGGATAGGTTGAAGTTCTGCACGTAGAAGCAAAAGGC [G34C G50A],0.17
3,GAGACCGCAACTGAAAAGTTGTTATCACTTGTCCTAAGACACTTTGGATCGGTTGAAGTTCTGCACGTAGAAGCAAAAGGC [G34C G50C],0.329
4,GAGACCGCAACTGAAAAGTTGTTATCACTTGTCCTAAGACACTTTGGATTGGTTGAAGTTCTGCACGTAGAAGCAAAAGGC [G34C G50T],0.733
5,GAGACCGCAACTGAAAAGTTGTTATCACTTGTCCTAAGACACTTTGGATGGGTTGAGGTTCTGCACGTAGAAGCAAAAGGC [G34C A57G],0.854
6,GAGACCGCAACTGAAAAGTTGTTATCACTTGTCCTAAGACACTTTGGATGGGTTGACGTTCTGCACGTAGAAGCAAAAGGC [G34C A57C],0.817
7,GAGACCGCAACTGAAAAGTTGTTATCACTTGTCCTAAGACACTTTGGATGGGTTGATGTTCTGCACGTAGAAGCAAAAGGC [G34C A57T],0.769
8,GAGACCGCAACTGAAAAGTTGTTATCACTTGTCATAAGACACTTCGGATGGGTTGAAGTTCTGCACGTAGAAGCAAAAGGC [G34A T45C],0.795
9,GAGACCGCAACTGAAAAGTTGTTATCACTTGTCATAAGACACTTGGGATGGGTTGAAGTTCTGCACGTAGAAGCAAAAGGC [G34A T45G],0.368
10,GAGACCGCAACTGAAAAGTTGTTATCACTTGTCTTAAGACACTTTGGATGGGTTGAAGTTCTGCACGTAGAAGCAAAAGGC [G34T],0.848
11,GAGACCGCAACTGAAAAGTTGTTATCACTTGTCCTAAGACACTTTGGATGGGTTGAAGTTCTGCACGTAGAAGCAAAAGGC [G34C],0.832
12,GAGACCGCAACTGAAAAGTTGTTATCACTTGTCCTAAGACACCTTGGATGGGTTGAAGTTCTGCACGTAGAAGCAAAAGGC [G34C T43C],0.78
13,GAGACCGCAACTGAAAAGTTGTTATCACTTGTCCTAAGACACGTTGGATGGGTTGAAGTTCTGCACGTAGAAGCAAAAGGC [G34C T43G],0.809
14,GAGACCGCAACTGAAAAGTTGTTATCACTTGTCCTAAGACACATTGGATGGGTTGAAGTTCTGCACGTAGAAGCAAAAGGC [G34C T43A],0.843
15,GAGACCGCAACTGAAAAGTTGTTATCACTTGTCCTAAGACGCTTTGGATGGGTTGAAGTTCTGCACGTAGAAGCAAAAGGC [G34C A41G],0.758
16,GAGACCGCAACTGAAAAGTTGTTATCACTTGTCCTAAGACTCTTTGGATGGGTTGAAGTTCTGCACGTAGAAGCAAAAGGC [G34C A41T],0.778
17,GAGACCGCAACTGAAAAGTTGTTATCACTTGTCCTAAGACCCTTTGGATGGGTTGAAGTTCTGCACGTAGAAGCAAAAGGC [G34C A41C],0.808
